Consider twelve molecules from patent US20230192875A1 (KUMHO HT, published 2023).

For test [1], the target named is T1, recombinant human CD40 (R&D systems, Cat. No.: P25942) (human, UniProt P25942 21-193).
T1 construct: also called rCD40; human recombinant CD40
Kind of test: ELISA, coated rCD40 1.0 µg/mL, CHO culture supernatant. Here is the method:
Each of the humanized antibody cultures was assayed for reactivity for a recombinant antigen human CD40 (rCD40; R&D systems, Cat. No.: P25942) by ELISA. For this assay, a dilution of rCD40 at a concentration of 1.0 μg/mL in phosphate buffered saline was plated at a density of 100 μL/well into microplates and incubated at 37° C. for one hour to coat the microplates with the antigen which was then blocked by adding a 1× blocking solution (Sigma) in an amount of 200 μl per well and incubating at 37° C. for one hour.
Following one hour of incubation with 100 μL of each of the humanized anti-CD40 antibody cultures at 37° C., the microplates were washed three times with phosphate buffered saline. Treatment with the secondary antibody goat anti-human IgG F(ab′)2-HRP (Jackson Immunoresearch, Cat. No.: 109-035-006) at 37° C. for 30 min was followed by three rounds of washing with phosphate buffered saline. Then, TMB Single Solution (Life Technologies, Cat. No: 002023) was added in an amount of 100 μl per well and incubated at room temperature for 5-10 min in a dark place. Color development was stopped with 100 μL of 1.0 N sulfuric acid and absorbance at 450 nm was measured.

Test [2] addresses T2, human CD40 expressed on Ramos cell line (ATCC CRL-1596) (human, UniProt P25942 21-277).
T2 construct: whole, on cells; Endogenous CD40 on Ramos cells; also called CD40 on Ramos cells
Kind of test: flow cytometry on Ramos cells, FITC-5C2 1.0 µg/mL, with or without preincubation with CD40L 15.0 µg/mL. Here is the method: A solution of FITC Isomer I (Invitrogen, Cat. No.: F1906) at a concentration of 2.6 mg/mL in DMSO (Sigma-Aldrich, Cat. No.:276855) was added in an amount of 20.0 μL to each of the antibody solutions. After FITC conjugation by stirring at room temperature for 2 hours, the resulting antibody solutions were dialyzed against phosphate buffered saline to obtain FITC-labeled antibodies.
The cells were washed again with phosphate buffered saline and then subjected to fluorescent immunoassay using flow cytometry (Stratedigm, S1000EXi).
In general terms: In flow cytometry, cells or beads pass a laser one at a time.

Test [3] addresses T1, recombinant human CD40 (R&D systems, …). The test can be described thus: ELISA, coated CD40 100 ng/well, hybridoma culture supernatant. Here is the method:
Human recombinant CD40 (R&D systems, Cat. No.:P25942) was plated in an amount of 100.0 ng per well into a MaxiSorp ELISA plate and reacted at 37° C. for one hour for antibody coating, followed by blocking by incubation with 200 μL of 1× blocking solution (Sigma) per well at 37° C. for one hour.

Test [4] addresses T3, recombinant antigen human CD40L (Recombinant Human sCD40 Ligand; Peprotech, Cat. No.: 310-02) (human, UniProt P29965 113-261).
T3 construct: Soluble recombinant CD40L; also called rCD40L; recombinant antigen CD40L
T3 chain: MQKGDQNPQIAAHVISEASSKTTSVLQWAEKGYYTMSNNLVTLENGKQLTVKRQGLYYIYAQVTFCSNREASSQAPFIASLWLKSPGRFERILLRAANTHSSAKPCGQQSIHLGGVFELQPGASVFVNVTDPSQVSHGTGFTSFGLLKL
Kind of test: ELISA, antigen coated at 1.0 µg/mL, antibody at 1.0 µg/mL, anti-mouse IgG-HRP. For orientation: In an ELISA, binding on a coated surface is turned into a signal by an enzyme label.

Test [5] has as its target T4, recombinant antigen human CD40 (Sino Biological Inc., Cat. No.: 10774-H02H) (human, UniProt P25942 21-193).
T4 construct: Bought antigen used in the ELISA of the chimeric antibodies
The test can be described thus: ELISA (FIG. 2). Here is the method:
A dilution of the recombinant antigen human CD40 (Sino Biological Inc., Cat. No.: 10774-H02H) at a concentration of 1.0 μg/mL in phosphate buffered saline was plated at 100 μL/well into microplates and incubated at 37° C. for one hour to coat the plates therewith. Then, a 1× blocking solution (Sigma) was added in an amount of 200 μL per well and incubated at 37° C. for one hour to block the antigen.
The dilutions were added in an amount of 100 μL/well, incubated at 37° C. for one hour and washed three times with phosphate buffered saline. The antibodies were treated with the secondary antibody goat anti-human IgG F(ab′)2-HRP (Jackson Immunoresearch, Cat. No.: 109-035-006) at 37° C. for 30 min and washed three times with phosphate buffered saline. After reaction with 100 μL of TMB Single Solution (Life Technologies, Cat. No: 002023) per well at room temperature for 4-10 min in a dark place, the color development was stopped with 100 μL of 1.0 N sulfuric acid and then absorbance at 450 nm was measured.

T4 sequence (P25942 21-193 limits assumed): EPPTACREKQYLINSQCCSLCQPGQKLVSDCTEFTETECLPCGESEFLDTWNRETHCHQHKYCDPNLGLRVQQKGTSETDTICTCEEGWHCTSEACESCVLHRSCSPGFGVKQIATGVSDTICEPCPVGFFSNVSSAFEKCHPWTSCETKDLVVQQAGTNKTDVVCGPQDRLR
T1 sequence (P25942 21-193 limits assumed, one chain of several): as the sequence (P25942 21-193 limits assumed) above
T2 sequence (P25942 21-277): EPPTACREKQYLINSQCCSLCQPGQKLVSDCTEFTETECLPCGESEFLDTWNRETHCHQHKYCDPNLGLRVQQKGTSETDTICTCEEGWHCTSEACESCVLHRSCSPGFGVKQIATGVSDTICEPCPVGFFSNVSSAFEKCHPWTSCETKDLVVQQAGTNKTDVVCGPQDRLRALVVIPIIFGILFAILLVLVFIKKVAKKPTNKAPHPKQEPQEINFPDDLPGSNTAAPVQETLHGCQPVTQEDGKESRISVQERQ

B1: humanized 5C2 antibody VH1VL2 (a combination of heavy chain VH1 and light chain VL2) (antibody, human IgG2, V domains shown)
VH: QVQLVQSGAEVKKPGASVKVSCKASGYGFTNYLIEWVRQAPGQGLEWIGVINPGYGGVNYNEKFKGRATLTADKSISTAYMELSRLRSDDTAVYFCARGGSGFAFWGQGTLVTVSS
VL: EIVMTQSPATLSVSPGERATLSCRASQDISNHLNWYQQKPGQAVRLLISSTSRLHSGIPARFSGSGSGTEYTLTISSLQSEDFAVYFCQQGNTLPWTFGQGTKVEIK
notes: Tested as CHO culture supernatant
As for B1, the binding result in test [1] is given as “binds”.

B2: humanized 5C2 antibody VH2VL2 (a combination of heavy chain VH2 and light chain VL2) (antibody, human IgG2, V domains shown)
VH: QVQLVQSGAEVKKPGASVKVSCKASGYGFTNYLIEWVRQAPGQGLEWIGVINPGYGGVNYNEKFKGRVTLTADKSISTAYMELSRLRSDDTAVYFCARGGSGFAFWGQGTLVTVSS
VL: EIVMTQSPATLSVSPGERATLSCRASQDISNHLNWYQQKPGQAVRLLISSTSRLHSGIPARFSGSGSGTEYTLTISSLQSEDFAVYFCQQGNTLPWTFGQGTKVEIK
notes: as for B1
In the case of B2, the binding result in test [1] is “binds”.

B3: humanized 5C2 antibody VH3VL2 (a combination of heavy chain VH3 and light chain VL2) (antibody, human IgG2, V domains shown)
VH: QVQLVQSGAEVKKPGSSVKVSCKASGYGFTNYLIEWVRQAPGQGLEWIGVINPGYGGVNYNEKFKGRATLTADKSTSTAYMELSSLRSEDTAVYFCARGGSGFAFWGQGTLVTVSS
VL: EIVMTQSPATLSVSPGERATLSCRASQDISNHLNWYQQKPGQAVRLLISSTSRLHSGIPARFSGSGSGTEYTLTISSLQSEDFAVYFCQQGNTLPWTFGQGTKVEIK
notes: as for B1
As to B3, the binding result in test [1] is listed as “binds”.

B4: humanized 5C2 antibody VH5VL1 (a combination of heavy chain VH5 and light chain VL1) (antibody, human IgG2, V domains shown)
VH: EVQLVQSGAEVKKPGESVKISCKASGYGFTNYLIEWVRQMPGKGLEWIGVINPGYGGVNYNEKFKGQATLSADKSISTAYLQLSSLKASDTAVYFCARGGSGFAFWGQGTLVTVSS
VL: DIQMTQSPSSLSASVGDRVTITCRASQDISNHLNWYQQKPGKAVKLLISSTSRLHSGVPSRFSGSGSGTDYTLTISSLQPEDFATYFCQQGNTLPWTFGQGTKVEIK
notes: as for B1
B4: the binding result in test [1] is “binds”.

B5: humanized 5C2 antibody VH1VL1 (a combination of heavy chain VH1 and light chain VL1) (antibody, human IgG2, V domains shown)
VH: QVQLVQSGAEVKKPGASVKVSCKASGYGFTNYLIEWVRQAPGQGLEWIGVINPGYGGVNYNEKFKGRATLTADKSISTAYMELSRLRSDDTAVYFCARGGSGFAFWGQGTLVTVSS
VL: DIQMTQSPSSLSASVGDRVTITCRASQDISNHLNWYQQKPGKAVKLLISSTSRLHSGVPSRFSGSGSGTDYTLTISSLQPEDFATYFCQQGNTLPWTFGQGTKVEIK
notes: as for B1
Regarding B5, the binding result in test [1] is “binds”.

B6: humanized 5C2 antibody VH5VL2 (a combination of heavy chain VH5 and light chain VL2) (antibody, human IgG2, V domains shown)
VH: EVQLVQSGAEVKKPGESVKISCKASGYGFTNYLIEWVRQMPGKGLEWIGVINPGYGGVNYNEKFKGQATLSADKSISTAYLQLSSLKASDTAVYFCARGGSGFAFWGQGTLVTVSS
VL: EIVMTQSPATLSVSPGERATLSCRASQDISNHLNWYQQKPGQAVRLLISSTSRLHSGIPARFSGSGSGTEYTLTISSLQSEDFAVYFCQQGNTLPWTFGQGTKVEIK
notes: as for B1
Regarding B6, in test [1], the binding result is on record as “binds”.

B7: humanized 5C2 antibody VH2VL1 (a combination of heavy chain VH2 and light chain VL1) (antibody, human IgG2, V domains shown)
VH: QVQLVQSGAEVKKPGASVKVSCKASGYGFTNYLIEWVRQAPGQGLEWIGVINPGYGGVNYNEKFKGRVTLTADKSISTAYMELSRLRSDDTAVYFCARGGSGFAFWGQGTLVTVSS
VL: DIQMTQSPSSLSASVGDRVTITCRASQDISNHLNWYQQKPGKAVKLLISSTSRLHSGVPSRFSGSGSGTDYTLTISSLQPEDFATYFCQQGNTLPWTFGQGTKVEIK
notes: as for B1
With B7, the binding result in test [1] is “binds”.

B8: humanized 5C2 antibody VH3VL1 (a combination of heavy chain VH3 and light chain VL1) (antibody, human IgG2, V domains shown)
VH: QVQLVQSGAEVKKPGSSVKVSCKASGYGFTNYLIEWVRQAPGQGLEWIGVINPGYGGVNYNEKFKGRATLTADKSTSTAYMELSSLRSEDTAVYFCARGGSGFAFWGQGTLVTVSS
VL: DIQMTQSPSSLSASVGDRVTITCRASQDISNHLNWYQQKPGKAVKLLISSTSRLHSGVPSRFSGSGSGTDYTLTISSLQPEDFATYFCQQGNTLPWTFGQGTKVEIK
notes: as for B1
For B8, the binding result in test [1] was “binds”.

B9: anti-CD40 mouse monoclonal antibody 5C2 (antibody, V domains shown)
VH: QVQMLQSGTELVRPGTSVKVSCKASGYGFTNYLIEWVKQRPGQGLEWIGVINPGYGGVNYNEKFKGKAILTADKSSSTAYMHLTSLTSDDSAVYFCARGGSGFAFWGQGTLVTVST
VL: DIQMTQTTSSLSASLGQRVTISCRASQDISNHLNWYQQKPNGTVRLLISSTSRLHSGVPSRFSGSGSGTDYSLTISNLEQEDIATYFCQQGNTLPWTFGGGTKLEIK
notes: also called 5C2 antibody (mouse antibody); antibody of hybridoma KCLRF-BP-00381
Take B9: the binding result is on record as “binds” in test [2], “binds” in test [3] and “no binding (tested: 1.0 µg/mL)” in test [4].

B10: anti-CD40 5C2 chimeric antibody comprising human IgG1 constant region (antibody)
heavy: not shown
light: DIQMTQTTSSLSASLGQRVTISCRASQDISNHLNWYQQKPNGTVRLLISSTSRLHSGVPSRFSGSGSGTDYSLTISNLEQEDIATYFCQQGNTLPWTFGGGTKLEIKRTVAAPSVFIFPPSDEQLKSGTASVVCLLNNFYPREAKVQWKVDNALQSGNSQESVTEQDSKDSTYSLSSTLTLSKADYEKHKVYACEVTHQGLSSPVTKSFNRGEC
notes: expressed in ExpiCHO and purified on Protein A; also called Chimeric IgG1; IgG1 chimeric antibody
As to B10, the binding result in test [5] is given as “binds”.

B11: anti-CD40 5C2 chimeric antibody comprising human IgG2 constant region (antibody)
heavy: QVQMLQSGTELVRPGTSVKVSCKASGYGFTNYLIEWVKQRPGQGLEWIGVINPGYGGVNYNEKFKGKAILTADKSSSTAYMHLTSLTSDDSAVYFCARGGSGFAFWGQGTLVTVSTASTKGPSVFPLAPCSRSTSESTAALGCLVKDYFPEPVTVSWNSGALTSGVHTFPAVLQSSGLYSLSSVVTVPSSNFGTQTYTCNVDHKPSNTKVDKTVERKCCVECPPCPAPPVAGPSVFLFPPKPKDTLMISRTPEVTCVVVDVSHEDPEVQFNWYVDGVEVHNAKTKPREEQFNSTFRVVSVLTVVHQDWLNGKEYKCKVSNKGLPAPIEKTISKTKGQPREPQVYTLPPSREEMTKNQVSLTCLVKGFYPSDIAVEWESNGQPENNYKTTPPMLDSDGSFFLYSKLTVDKSRWQQGNVFSCSVMHEALHNHYTQKSLSLSPGK
light: DIQMTQTTSSLSASLGQRVTISCRASQDISNHLNWYQQKPNGTVRLLISSTSRLHSGVPSRFSGSGSGTDYSLTISNLEQEDIATYFCQQGNTLPWTFGGGTKLEIKRTVAAPSVFIFPPSDEQLKSGTASVVCLLNNFYPREAKVQWKVDNALQSGNSQESVTEQDSKDSTYSLSSTLTLSKADYEKHKVYACEVTHQGLSSPVTKSFNRGEC
notes: also called Chimeric IgG2; IgG2 chimeric antibody
With B11, the binding result in test [5] is reported as “binds”.

B12: anti-CD40 5C2 chimeric antibody comprising human IgG4 constant region (antibody)
heavy: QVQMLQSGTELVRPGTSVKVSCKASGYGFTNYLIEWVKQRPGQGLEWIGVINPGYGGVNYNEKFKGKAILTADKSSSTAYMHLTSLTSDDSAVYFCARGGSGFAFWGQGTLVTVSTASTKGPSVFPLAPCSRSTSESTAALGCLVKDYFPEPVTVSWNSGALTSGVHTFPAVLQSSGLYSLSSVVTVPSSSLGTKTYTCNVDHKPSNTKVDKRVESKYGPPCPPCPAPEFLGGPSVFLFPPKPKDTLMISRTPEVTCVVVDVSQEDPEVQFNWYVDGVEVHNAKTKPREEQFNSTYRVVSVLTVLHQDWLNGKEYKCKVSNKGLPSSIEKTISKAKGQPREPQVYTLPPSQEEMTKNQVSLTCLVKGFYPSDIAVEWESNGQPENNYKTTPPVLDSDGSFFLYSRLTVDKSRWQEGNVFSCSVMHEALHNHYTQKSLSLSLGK
light: DIQMTQTTSSLSASLGQRVTISCRASQDISNHLNWYQQKPNGTVRLLISSTSRLHSGVPSRFSGSGSGTDYSLTISNLEQEDIATYFCQQGNTLPWTFGGGTKLEIKRTVAAPSVFIFPPSDEQLKSGTASVVCLLNNFYPREAKVQWKVDNALQSGNSQESVTEQDSKDSTYSLSSTLTLSKADYEKHKVYACEVTHQGLSSPVTKSFNRGEC
notes: also called Chimeric IgG4; IgG4 chimeric antibody
B12: in test [5], the binding result was “binds”.
